B1: A. eutrophus PHA synthase (phbC gene product) produced in insect cells with a baculovirus vector (enzyme, Alcaligenes eutrophus, UniProt P23608 7-589, looked up)
chain: AAASTQEGKSQPFKVTPGPFDPATWLEWSRQWQGTEGNGHAAASGIPGLDALAGVKIAPAQLGDIQQRYMKDFSALWQAMAEGKAEATGPLHDRRFAGDAWRTNLPYRFAAAFYLLNARALTELADAVEADAKTRQRIRFAISQWVDAMSPANFLATNPEAQRLLIESGGESLRAGVRNMMEDLTRGKISQTDESAFEVGRNVAVTEGAVVFENEYFQLLQYKPLTDKVHARPLLMVPPCINKYYILDLQPESSLVRHVVEQGHTVFLVSWRNPDASMAGSTWDDYIEHAAIRAIEVARDISGQDKINVLGFCVGGTIVSTALAVLAARGEHPAASVTLLTTLLDFADTGILDVFVDEGHVQLREATLGGGAGAPCALLRGLELANTFSFLRPNDLVWNYVVDNYLKGNTPVPFDLLFWNGDATNLPGPWYCWYLRHTYLQNELKVPGKLTVCGVPVDLASIDVPTYIYGSREDHIVPWTAAYASTALLANKLRFVLGASGHIAGVINPPAKNKRSHWTNDALPESPQQWLAGAIEHHGSWWPDWTAWLAGQAGAKRAAPANYGNARYRAIEPAPGRYVKAKA
notes: Denatured on SDS-PAGE for the Western blots; Size exclusion chromatography used the native purified protein; also called PHB synthase; 64 kDa protein

How the values were obtained:
[1] = biological target: A. eutrophus PHA synthase (Cupriavidus necator, UniProt P23608); conditions: read-out: apparent Km (substrate concentration at half-optimal velocity); enzyme 0.95 mg/ml; 40 or 200 μl assay volumes; FIG. 10
[2] = biological target: the molecule itself; test: size exclusion chromatography of native protein (forms of about 100-160 kDa and 50-80 kDa)
[3] = Storage stability of PHA synthase purified from insect cells; assay type: physicochemical
Description: Fraction collection tubes were prepared by addition of […] of 100 mM EDTA to provide a metalloprotease inhibitor at 1 mM immediately after HA chromatography. PHA synthase was eluted in a broad peak between 110-180 mM KPi. Fractions (3 ml) containing significant PHA synthase activity were pooled and stored at 0° C. until the entire soluble fraction had been run through the chromatographic process. Pooled fractions then were concentrated at 4° C. by use of a Centriprep-30 concentrator (Amicon) to 3.8 mg/ml. Aliquots (0.5 ml) were either flash frozen and stored in liquid N2 or glycerol was added to a final concentration of 50% and samples (1.9 mg/ml) were stored at −20° C.
PHA synthase purified from insect cells appears to be relatively stable.

Molecule | Km [1] [µM] | binding result [2] | synthase activity remained ([3]; after 7 weeks stored at −20° C. in the presence of 50% glycerol) | synthase activity remained ([3]; after 7 weeks stored in liquid N2)
3-hydroxybutyrate CoA [HBCoA] | 2500 |  |  | 
B1 |  | binds | approximately 75% | approximately 50%
